From US6015555, “Transferrin receptor specific antibody-neuropharmaceutical or diagnostic agent conjugates” (Alkermes, Inc., dated 2000)

Key:
rat transferrin receptor [1] = biological target: T1, rat transferrin receptor (rat, UniProt Q99376)
rat transferrin receptor [2] = biological target: T1, rat transferrin receptor; remark: listed apart in the source
rat transferrin receptor [3] = biological target: T1, rat transferrin receptor; remark: listed apart in the source
[4] = biological target: transferrin receptor on monkey (cynomolgous) brain capillaries (monkey (cynomolgous))
rat transferrin receptor [5] = biological target: T1, rat transferrin receptor; experiment: immunohistochemistry on rat brain sections (brain capillary endothelial cells)
Excerpt: Biodistribution and Brain Uptake of Anti-Human Transferrin Receptor Antibodies in Cynomolgous Monkeys A collection of 32 murine monoclonal antibodies which recognize various epitopes on the human transferrin receptor were examined for reactivity with brain capillary endothelial cells in sections from human, monkey (cynomolgous), rat and rabbit brain samples by the immunohistochemical methods described in Example 1. These antibodies were obtained from Dr. Ian Trowbridge of the Salk Institute, LaJolla, Calif. […] Two antibodies reacted very weakly with rabbit brain capillaries and none reacted with rat. […] These 2 antibodies are herewithin referred to as 128.1 and Z35.2.

## OX-26 murine monoclonal antibody
Rat transferrin receptor [1]
  percent of the injected dose of 14C-labelled antibody in the brain (% of the injected dose): 0.9
Rat transferrin receptor [2]
  distribution of radiolabelled antibody between brain capillary fraction and parenchyma fraction (capillary depletion): 0.36 % ID

## OX-26-methotrexate (MTX) conjugate linked via a gamma-hydrazid (antibody)
Rat transferrin receptor [3]
  distribution of 3H-MTX label between brain capillary fraction and parenchyma fraction (capillary depletion): 4.5 fold

B1: murine monoclonal antibody 128.1 (antibody, V domains shown)
VH: EVQLQQSGPELVKPGASMKISCKASGYSFTGYTMNWVKQSHGENLEWIGRINPHNGGTDYNQKFKDKAPLTVDKSSNTAYMELLSLTSGDSAVYYCARGYYYYSLDYWGQGTSVTVSS
VL: QIVLTQSPAIMSVSPGEKVTMTCSASSSIRYIHWYQQRPGTSPKRWIYDTSNLASGVPARFSGSGSGTSYSLTISSMEAEDAATYYCHQRNSYPWTFGGGTRLEIR
[4]
  share of 14C-labelled antibody in the brain parenchyma (capillary depletion) 24 hours after injection into a cynomolgous monkey: 90%
Rat transferrin receptor [5]
  binding result: no binding
